Experimental data taken from patent publication US7381537B2, “Use of inhibitors of glutaminyl cyclases for treatment and prevention of disease” (Probiodrug AG, priority 2003, dated 2008).

How the values were obtained:
Test in all cases: purified protein, by the assay type;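 also: initial rates read in microplates at 30 °C, with enzyme activity quantified against an ammonia calibration curve recorded under the same assay conditions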
[1] = substrate: CC(C)C[C@H](NC(=O)[C@H](CCCCN)NC(=O)[C@H](CCC(N)=O)NC(=O)[C@H](Cc1c[nH]cn1)NC(=O)[C@H](Cc1c[nH]cn1)NC(=O)[C@@H](NC(=O)[C@H](CCC(=O)O)NC(=O)[C@H](Cc1ccc(O)cc1)NC(=O)CNC(=O)[C@H](CO)NC(=O)[C@H](CC(=O)O)NC(=O)[C@H](Cc1c[nH]cn1)NC(=O)[C@H](CCCNC(=N)N)NC(=O)[C@H](Cc1ccccc1)NC(=O)[C@@H](N)CCC(N)=O)C(C)C)C(=O)N[C@H](C(=O)N[C@@H](Cc1ccccc1)C(=O)N[C@@H](Cc1ccccc1)C(=O)N[C@@H](C)C(N)=O)C(C)C; details: other: recombinant human QC, buffer solution containing 1% DMSO; pH 8.8
Experimental: (§1) The initial velocities were evaluated and the enzymatic activity was determined from a standard curve of ammonia under assay conditions. All samples were measured at 30° C., using either the [sequence]luor Plus or the Sunrise (both from TECAN) reader for microplates. Kinetic data was evaluated using GraFit software.

[2] = substrate: CC(C)C[C@H](NC(=O)[C@H](CCCNC(=N)N)NC(=O)[C@H](CCCCN)NC(=O)[C@H](Cc1ccccc1)NC(=O)C[C@@H](N)CCC(N)=O)C(=O)N[C@@H](C)C(N)=O; details: other: text b245; pH 8.8
Experimental: as §1

[3] = substrate: C[C@H](NC(=O)[C@H](C)NC(=O)[C@H](C)NC(=O)[C@H](C)NC(=O)[C@@H](N)CCC(N)=O)C(N)=O; details: other: Table 6, influence of substrate length; pH 8.8
Experimental: as §1

[4] = substrate: C[C@H](NC(=O)[C@H](C)NC(=O)[C@H](CO)NC(=O)[C@H](C)NC(=O)[C@H](C)NC(=O)[C@@H](N)CCC(N)=O)C(N)=O; details: other: Table 6, influence of substrate length; pH 8.8
Experimental: as §1

[5] = substrate: N=C(N)NCCC[C@H](NC(=O)[C@H](Cc1ccccc1)NC(=O)[C@@H](N)CCC(N)=O)C(=O)N[C@@H](Cc1c[nH]cn1)C(=O)N[C@@H](CC(=O)O)C(=O)N[C@@H](CO)C(=O)NCC(=O)N[C@@H](Cc1ccc(O)cc1)C(=O)N[C@@H](CCC(=O)O)C(N)=O; details: other: recombinant human QC, buffer solution containing 1% DMSO; pH 8.8
Experimental: as §1

B1: human QC (Homo sapiens) (protein)
chain: VSPSASAWPEEKNYHQPAILNSSALRQIAEGTSISEMWQNDLQPLLIERYPGSPGSYAARQHIMQRIQRLQADWVLEIDTFLSQTPYGYRSFSNIISTLNPTAKRHLVLACHYDSKYFSHWNNRVFVGATDSAVPCAMMLELARALDKKLLSLKTVSDSKPDLSLQLIFFDGEEAFLHWSPQDSLYGSRHLAAKMASTPHPPGARGTSQLHGMDLLVLLDLIGAPNPTFPNFFPNSARWFERLQAIEHELHELGLLKDHSLEGRYFQNYSYGGVIQDDHIPFLRRGVPVLHLIPSPFPEVWHTMDDNEENLDESTIDNLNKILQVFVLEYLHL
Q: B1 was tested. Which Km [1] did it give?
A: 162 ± 12 µM

Q: What about the kcat [1] of the same protein?
A: 62 ± 3 s⁻¹

Q: What about the kcat/Km [1] of the same protein?
A: 383000 ± 10000 M⁻¹ s⁻¹

Q: And the Km [2]?
A: 2.5 ± 0.2 mM

Q: What about the kcat [2] of the same protein?
A: 3.5 ± 0.1 s⁻¹

Q: And the kcat/Km [2]?
A: 1.3 ± 0.1 mM⁻¹ s⁻¹

Q: What about the Km [3] of the same protein?
A: 65 ± 3 µM

Q: What about the kcat [3] of the same protein?
A: 60.5 ± 0.7 s⁻¹

Q: And the kcat/Km [3]?
A: 1174 ± 43 mM⁻¹ s⁻¹

Q: What about the Km [4] of the same protein?
A: 79 ± 6 µM

Q: What about the kcat [4] of the same protein?
A: 55.3 ± 1.6 s⁻¹

Q: What about the kcat/Km [4] of the same protein?
A: 700 ± 33 mM⁻¹ s⁻¹

Q: And the Km [5]?
A: 155 ± 4 µM

Q: What about the kcat [5] of the same protein?
A: 41.4 ± 0.4 s⁻¹

Q: And the kcat/Km [5]?
A: 267000 ± 4000 M⁻¹ s⁻¹
